{"source": "paper PMC10016340", "key": {"[1]": {"molecular_target": "Cofilin-1 (human) (UniProt P23528)", "sequence (P23528 whole entry)": "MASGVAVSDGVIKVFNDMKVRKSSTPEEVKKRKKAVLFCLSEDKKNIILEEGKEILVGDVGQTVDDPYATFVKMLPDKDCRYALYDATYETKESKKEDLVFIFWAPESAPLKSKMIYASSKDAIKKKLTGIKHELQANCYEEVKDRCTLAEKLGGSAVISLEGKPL", "assay": "SPR"}, "[2]": {"molecular_target": "Ubiquitin carboxyl-terminal hydrolase isozyme L1 (UCH-L1) (human) (UniProt P09936)", "sequence (P09936 whole entry)": "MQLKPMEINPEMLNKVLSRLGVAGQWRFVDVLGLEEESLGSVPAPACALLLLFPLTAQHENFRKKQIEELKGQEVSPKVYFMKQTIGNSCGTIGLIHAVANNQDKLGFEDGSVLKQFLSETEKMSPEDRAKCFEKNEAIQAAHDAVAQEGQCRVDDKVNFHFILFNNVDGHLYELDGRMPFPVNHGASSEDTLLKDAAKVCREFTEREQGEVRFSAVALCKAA", "assay": "SPR"}}}
{"substance": "α-synuclein oligomers (αSOs) (from UniProt P37840 1-140) (complex)", "values": [{"measurement": "Kd", "setting": "[1]", "result": 290, "unit": "nM"}, {"measurement": "Kd", "setting": "[2]", "result": 600, "unit": "nM"}]}
